In article PMC9926122:

Molecular target: T1, recombinant EB1 (HS-AFM and microtubule experiments) (human), Q15691
T1 chain: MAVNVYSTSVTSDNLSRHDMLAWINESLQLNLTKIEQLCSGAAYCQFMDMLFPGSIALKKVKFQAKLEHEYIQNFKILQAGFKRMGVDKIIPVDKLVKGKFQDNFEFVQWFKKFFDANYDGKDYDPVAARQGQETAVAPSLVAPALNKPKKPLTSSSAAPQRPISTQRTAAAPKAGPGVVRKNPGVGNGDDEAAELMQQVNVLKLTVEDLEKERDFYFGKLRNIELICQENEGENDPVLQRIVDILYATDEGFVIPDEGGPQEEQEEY
Assay: high-speed atomic force microscopy (HS-AFM); proteins (10-30 nM; 10 nM in the frames shown) in BRB80 buffer (80 mM Pipes, 1 mM EGTA, 1 mM MgCl2, pH 6.9) on mica, tapping mode, 150 ms per frame; EB1 alone, Ska1 alone and their mixture
Details: remark: other sources report otherwise

B1: recombinant EB1 (HS-AFM and microtubule experiments), Q15691 1-268 (natural protein)
chain: T1 chain
For B1, the stoichiometry N was 2.
